These results are taken from PMC10901769, “An anti-CRISPR that represses its own transcription while blocking Cas9-target DNA binding”.

Data set [1] addresses T1, AcrIIA15 full-length (UniProt PDB:8JG9_3 1-171).
T1 sequence: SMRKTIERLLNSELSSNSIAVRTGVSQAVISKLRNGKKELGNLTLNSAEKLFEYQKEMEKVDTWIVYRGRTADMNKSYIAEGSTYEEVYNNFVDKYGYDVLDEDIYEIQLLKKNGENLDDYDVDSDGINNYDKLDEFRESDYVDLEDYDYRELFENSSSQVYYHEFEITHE
Put plainly: SEC; no stable binding; Promoter EMSA: 20 mM Tris-HCl pH 7.5, 300 mM NaCl, on ice/4 C, 30 min; SaCas9 EMSA: 20 mM Tris pH 7.5, 200 mM NaCl, 10 mM EDTA, RT; SPR: 10 mM Na2HPO4, 2 mM KH2PO4, 0.3 M NaCl; SEC: 20 mM Tris pH 7.5, 300 mM NaCl. Conditions: protein: recombinant; tags: C-terminal His6, or His6-Sumo removed by Ulp1; chain copies: 2; blunt.

For a further data set, the target named is T2, SaCas9;AcrIIA15 CTD (Staphylococcus aureus;, UniProt J7RUA5;PDB:8JFT_3 1-1053;1-114, |).
T2 sequence 1: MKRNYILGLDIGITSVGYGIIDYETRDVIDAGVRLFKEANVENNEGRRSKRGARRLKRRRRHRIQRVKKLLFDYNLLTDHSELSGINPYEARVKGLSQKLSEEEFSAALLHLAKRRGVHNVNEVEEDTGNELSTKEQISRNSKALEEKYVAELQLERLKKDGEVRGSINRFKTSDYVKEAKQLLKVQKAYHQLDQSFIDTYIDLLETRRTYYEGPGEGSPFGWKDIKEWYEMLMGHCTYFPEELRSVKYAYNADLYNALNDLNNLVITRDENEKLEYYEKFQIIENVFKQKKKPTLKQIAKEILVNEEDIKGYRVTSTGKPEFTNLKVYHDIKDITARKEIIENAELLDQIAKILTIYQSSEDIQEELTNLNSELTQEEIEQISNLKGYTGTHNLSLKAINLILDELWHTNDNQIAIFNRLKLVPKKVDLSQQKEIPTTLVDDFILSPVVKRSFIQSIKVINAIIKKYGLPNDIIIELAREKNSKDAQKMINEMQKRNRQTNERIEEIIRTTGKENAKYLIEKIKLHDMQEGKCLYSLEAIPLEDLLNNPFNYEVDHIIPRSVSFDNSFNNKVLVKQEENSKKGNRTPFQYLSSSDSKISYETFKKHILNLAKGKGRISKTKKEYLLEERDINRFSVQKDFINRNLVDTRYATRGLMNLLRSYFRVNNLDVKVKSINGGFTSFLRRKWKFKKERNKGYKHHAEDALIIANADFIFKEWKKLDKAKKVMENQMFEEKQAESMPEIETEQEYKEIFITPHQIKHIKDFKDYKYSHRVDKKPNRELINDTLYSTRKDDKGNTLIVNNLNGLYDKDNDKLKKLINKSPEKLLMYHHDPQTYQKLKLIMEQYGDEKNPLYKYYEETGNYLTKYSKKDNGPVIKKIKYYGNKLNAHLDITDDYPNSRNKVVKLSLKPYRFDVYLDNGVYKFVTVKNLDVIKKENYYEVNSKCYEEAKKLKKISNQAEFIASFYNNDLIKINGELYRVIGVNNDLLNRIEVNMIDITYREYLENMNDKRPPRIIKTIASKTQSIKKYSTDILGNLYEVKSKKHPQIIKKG
T2 sequence 2: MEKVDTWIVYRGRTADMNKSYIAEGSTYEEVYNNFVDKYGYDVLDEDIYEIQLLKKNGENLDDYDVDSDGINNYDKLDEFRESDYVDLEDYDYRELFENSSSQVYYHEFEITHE
The data set is described as follows: cryo-EM; Promoter EMSA: 20 mM Tris-HCl pH 7.5, 300 mM NaCl, on ice/4 C, 30 min; SaCas9 EMSA: 20 mM Tris pH 7.5, 200 mM NaCl, 10 mM EDTA, RT; SPR: 10 mM Na2HPO4, 2 mM KH2PO4, 0.3 M NaCl; SEC: 20 mM Tris pH 7.5, 300 mM NaCl. The note with it: protein: recombinant;recombinant; tags: His6-Sumo removed by Ulp1;C-His6 or His6-Sumo (removed); copies: 1;1; hairpin.

In data set [2] the target is T3, SaCas9;AcrIIA15 full-length (Staphylococcus aureus;, UniProt J7RUA5;PDB:8JG9_3 1-1053;1-171, |).
T3 sequence 1: T2 sequence 1
T3 sequence 2: T1 sequence
The data set is described as follows: cryo-EM; with IR1 DNA; Promoter EMSA: 20 mM Tris-HCl pH 7.5, 300 mM NaCl, on ice/4 C, 30 min; SaCas9 EMSA: 20 mM Tris pH 7.5, 200 mM NaCl, 10 mM EDTA, RT; SPR: 10 mM Na2HPO4, 2 mM KH2PO4, 0.3 M NaCl; SEC: 20 mM Tris pH 7.5, 300 mM NaCl. The note with it: protein: recombinant;recombinant; tags: His6-Sumo removed by Ulp1;C-terminal His6, or His6-Sumo removed by Ulp1; chain copies: 2;2; hairpin.

The target in another data set is T4, AcrIIA15 CTD (UniProt PDB:8JFT_3 1-114).
T4 sequence: T2 sequence 2
Put plainly: EMSA; Promoter EMSA: 20 mM Tris-HCl pH 7.5, 300 mM NaCl, on ice/4 C, 30 min; SaCas9 EMSA: 20 mM Tris pH 7.5, 200 mM NaCl, 10 mM EDTA, RT; SPR: 10 mM Na2HPO4, 2 mM KH2PO4, 0.3 M NaCl; SEC: 20 mM Tris pH 7.5, 300 mM NaCl. The note with it: protein: recombinant; tags: C-His6 or His6-Sumo (removed); blunt.

Another data set concerns the target T5, AcrIIA15 NTD (UniProt PDB:8JFR_1 1-63).
T5 sequence: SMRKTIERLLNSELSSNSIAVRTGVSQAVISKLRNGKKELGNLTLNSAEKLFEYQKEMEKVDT
The description is as above. Conditions: protein: recombinant; tags: C-His6 or His6-Sumo (removed); chain copies: 2; blunt.

The target of data set [3] is T1, AcrIIA15 full-length. Described as above. Conditions: protein: recombinant; tags: C-terminal His6, or His6-Sumo removed by Ulp1; chain copies: 2; blunt.

B1: IR1' (dsDNA)
DNA 1: TTATGACAAATGTCATAG
DNA 2: CTATGACATTTGTCATAA
Consider B1, for which the binding result with AcrIIA15 full-length [1] is “no binding”.

B2: SaCas9 sgRNA (structured_RNA)
RNA: GGUCUGCUAUUUCUAUUUACGUUUUAGUACUCUGGAAACAGAAUCUACUAAAACAAGGCAAAAUGCCGUGUUUAUCUCGUCAACUUGUUGGCGAGAUC
Regarding B2, the binding result (in the data set with SaCas9;AcrIIA15 CTD; in data set [2]) was “binds” in each case.

B3: IR1-IR2 (dsDNA)
DNA 1: ATAATTATGACAAATGTCATAGAAAAGCGTTGACTTATGACGAACGTCATAATATA
DNA 2: TATATTATGACGTTCGTCATAAGTCAACGCTTTTCTATGACATTTGTCATAATTAT
For B3, the binding result with AcrIIA15 CTD is listed as “no binding”; with AcrIIA15 NTD it was “binds”; with AcrIIA15 full-length [3], “binds”.
